US8772236B2, “Truncated cystine-knot proteins” (Pepscan Systems B.V., priority 2009, dated 2014)
“And” between values parts separate entries of the source, which are not always exact repeats. Equal entries are not always repeated.

Legend:
[1] = biological target: T1, ratVEGF1-165 homodimer (recombinant full-length ratVEGF) (Rattus norvegicus, UniProt P16612); experiment: Binding of rat-antisera in ELISA to ratVEGF1-165 homodimer; conditions: coat ratVEGF1-165 homodimer; Avastin
T1 construct: humanVEGF), and D) ratVEGF1-165 homodimer (recombinant full-length ratVEGF); For
T1 sequence (P16612 27-165 isoform P16612-2 limits assumed): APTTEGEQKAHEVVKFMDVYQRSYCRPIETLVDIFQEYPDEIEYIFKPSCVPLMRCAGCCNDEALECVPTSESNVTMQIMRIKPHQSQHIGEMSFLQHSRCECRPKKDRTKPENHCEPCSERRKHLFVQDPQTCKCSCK
Procedure: Therefore, polystyrene 96-well plates (Greiner, Germany) were treated with 100 μL/well of 0.2% glutaric dialdehyde in phosphate-buffer (0.1 M, pH=5) for four hours at room temperature while shaking, following by washing (3×10 minutes) with phosphate-buffer (0.1 M, pH=8). Then, the wells were coated with 100 μL/well of a 1 μg/mL solution of oxid-humVEGF26-104/humVEGF1-165 in phosphate-buffer (0.1 M, pH=8) for three hours at 37° C., followed by overnight standing at room temperature. After washing with 1% TWEEN®-80 (3×), the plates were incubated with the antibody at various different dilutions in horse serum (4% in PBS/1% TWEEN®-80/3% NaCl), starting with 1/10 dilution in the first well and three-fold dilution steps in subsequent wells. Incubation was performed for one hour at 37° C., followed by washing with 1% TWEEN®-80 (3×). Then, the plates were incubated with 100 μL/well of peroxidase-labeled Goat-anti-rat serum (1/1000 dilution in 4% horse serum, see above) for one hour at 25° C., followed by washing with 1% TWEEN®-80 (4×). […] OD405 nm-values were measured after 45 minutes standing at room temperature in the dark.
(§3) Titers were calculated by determining the serum dilution for which OD405 nm is equal to 4×OD405 nm that of a buffer solution (see “ELISA-binding studies, example 1B”). […]

Avastin™ = experiment: Competition ELISA: inhibition of Avastin-binding to surface-immobilized humVEGF1-165 by peptides
[2] = tested on: BaF3 cells (murine pre-B lymphocytes stable expressing human humVEGF-Receptor 2); experiment: BaF3-cell proliferation in the presence of oxid-humVEGF26-104; assay type: cell-based
Procedure: FIG. 8. Proliferation data from BaF3/cell assay with humVEGF26-104 at various concentration (0.01-20 ng/mL), either in the absence and presence of humVEGF1-165. Level of proliferation observed at humVEGF1-165=1.2 ng/mL was set by default to 100%, other proliferation levels were expressed as % of default.
The cells that are used in the assay are murine pre-B lymphocytes stable expressing human (h) humVEGF-Receptor 2 (Makinen et al., 2001). These recombinant cells survive/proliferate only in the presence of IL-3 (natural cytokine required for the survival of the parental cells) or humVEGF. […]
Two days later, cell proliferation was measured by adding WST-1 (Roche #1644807). […]
The WST-1 assay is based on the measurement of the mitochondrial succinate dehydrogenase activity. […] A tetrazolium salt (WST-1) is used as substrate since it generates a soluble dark metabolic (formazon) through the action of the enzyme, which can then be quantified by measuring the absorbance (450 nm) in an ELISA reader. The higher the absorbance measured in the assay, the stronger the proliferation. Absorbance is positively correlated with proliferation. […]
In order to check whether oxid-humVEGF26-104, the truncated form of humVEGF1-165, is also able to induce BaF3-cell proliferation, we measured cell proliferation in the presence of varying amounts of oxid-humVEGF26-104 (0.01-20 ng/mL). […]

humVEGF1-165 = biological target: T2, humVEGF1-165 (Homo sapiens, UniProt P15692); experiment: ELISA titer determination of antisera on surface-immobilized humVEGF1-165 after immunization with oxid-humVEGF26-104; assay type: binding; conditions: female Wistar rats and female Balb/C mice
T2 sequence (P15692 27-191 isoform P15692-4 limits assumed): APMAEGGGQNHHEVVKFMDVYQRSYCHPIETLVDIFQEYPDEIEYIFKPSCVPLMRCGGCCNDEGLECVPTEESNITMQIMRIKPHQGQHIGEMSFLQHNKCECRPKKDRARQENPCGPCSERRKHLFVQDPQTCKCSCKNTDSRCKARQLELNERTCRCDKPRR
Procedure: Therefore, polystyrene 96-well plates (Greiner, Germany) were treated with 100 μL/well of 0.2% glutaric dialdehyde in phosphate-buffer (0.1 M, pH=5) for four hours at room temperature while shaking, following by washing (3×10 minutes) with phosphate-buffer (0.1 M, pH=8). Then, the wells were coated with 100 μL/well of a 1 μg/mL solution of oxid-humVEGF26-104/humVEGF1-165 in phosphate-buffer (0.1 M, pH=8) for three hours at 37° C., followed by overnight standing at room temperature. After washing with 1% TWEEN®-80 (3×), the plates were incubated with the antibody at various different dilutions in horse serum (4% in PBS/1% TWEEN®-80/3% NaCl), starting with 1/10 dilution in the first well and three-fold dilution steps in subsequent wells. […] OD405 nm-values were measured after 45 minutes standing at room temperature in the dark. […]
Wistar rats: Female Wistar rats were immunized with anti-humVEGF26-104 at day 0 with 400 μL (intramuscular+subcutaneous, 200 μL each) of a 375 μg/mL solution of humVEGF26-104 in PBS/CoVaccine 1:1 (v/v) (PBS=Phosphate-Buffered Saline), followed by a booster (same quantity and concentration) at two and four weeks. […]
as §3

[3] = Immunization study in Wistar rats with oxid-ratVEGF26-104 and oxid-humVEGF26-104; assay type: in vivo; conditions: 250 micrograms, CoVaccine, days 0, 14, 28, 42; bled day 56
Excerpt: This example describes the results of an immunization study in male Whistar rats with both oxid-hum-VEGF26-104 and oxid-ratVEGF26-104 with an intact cystine-knot fold (oxid-form). […] The use of truncated VEGF as described in this patent can thus be used to bypass immune tolerance to “self proteins,” like, for example, the full-length homodimeric VEGF protein in this particular case.
A total of four Wistar rats (2×2) were immunized on day 0 with 250 micrograms each of either oxid-ratVEGF26-104 (two rats) or oxid-humVEGF26-104 (two rats) using CoVaccine as adjuvant, followed by booster inoculations at day 14, 28, and 42. The rats were finally bled at day 56, and the sera were analyzed for antibody titers against ratVEGF1-165, humVEGF1-165, oxid-ratVEGF26-104, and oxid-humVEGF26-104.

full-length TGF-B2 = biological target: T3, full-length TGF-B2 (Homo sapiens, UniProt P61812); experiment: ELISA titers of rat antisera to full-length TGF-B2 after immunization with the chimeric peptide; assay type: binding
T3 sequence (P61812 303-414 limits assumed): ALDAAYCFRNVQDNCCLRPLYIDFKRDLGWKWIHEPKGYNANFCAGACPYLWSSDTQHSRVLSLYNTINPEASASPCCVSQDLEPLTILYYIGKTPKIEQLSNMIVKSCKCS
Excerpt: (§1) FIG. 21. (Panel A) Antibody titers in ELISA for 9wpv-rat sera (1 and 2+pre-immune sera) that were elicited via immunization with oxid-humTGFB215-111/Δ49-77-humVEGF62-67. Titers were defined as the −10 log [conc] at which the OD in ELISA is equal to 4× the background signal. (Panel B) Antibody binding in ELISA of 9wpv-rat sera to surface-immobilized 1) humTGFB2trunc-1 (with VEGF b2-loop), 2) humTGFB2trunc-2 (with sequence PGGSPA replacing native humTGF-B2 b2-loop), and 3) humVEGFtrunc.
(§2) Each animal received four inoculations (0, 2, 4, and 7.5 wks) with 2×450+2×130 microgram of oxid-humTGFB215-111/Δ49-77-humVEGF62-67.

[4] = tested on: humTGFB2trunc-1, humTGFB2trunc-2, humVEGFtrunc; experiment: ELISA binding of 9wpv-rat sera to humTGFB2trunc-1, humTGFB2trunc-2 and humVEGFtrunc; set-up: species or system human
Excerpt: as §1, §2

## Avastin: humanized anti-humVEGF monoclonal antibody (Genentech)
[1]
  titer endblood (mAb, as concentration): <1000 ng/mL

## (cyclic) peptide-mimic derived from the beta3-loop of humVEGF: backbone-cyclized peptide covering only the β5-turn-β6 loop of humVEGF (humVEGF74-98) (SNITMQIMRIKPHQGQHIGEMSFLQ; cyclised or stapled) [reference compound]
Avastin™
  fold less active in binding to Avastin™: > 10,000 fold

B1: oxid-humVEGF26-104: truncated human VEGF residues 26-104, N-acetylated, C-amidated, cystine-knot folded (SEQ ID NO:27) (peptide)
chain: CHPIETLVDIFQEYPDEIEYIFKPSAVPLMRCGGACNDEGLECVPTEESNITMQIMRIKPHQGQHIGEMSFLQHNKCEC
modifications: N-acetyl, C-amide, cystine-knot folded; VEGF26-104
Avastin™; 10 ng/mL Avastin
  difference in affinity (as compared to humVEGF1-165) to Avastin™: less than five
[2]; 0.01-20 ng/mL in the presence of humVEGF1-165=1.2 ng/mL
  effect on the proliferating ability of humVEGF1-165: nor any affect on the proliferating ability of humVEGF1-165
[2]; 0.01-20 ng/mL, absence of humVEGF1-165
  activity in BaF3-cell proliferation: no activity
humVEGF1-165
  antibody generation via immunization (not conjugated to a carrier protein): high levels of antibodies were successfully generated

B2: oxid-ratVEGF26-104: truncated rat VEGF residues 26-104, acetylated and amidated, cystine-knot folded (SEQ ID NO:30) (peptide)
chain: CRPIETLVDIFQEYPDEIEYIFKPSAVPLMRCAGACNDEALECVPTSESNVTMQIMRIKPHQSQHIGEMSFLQHSRCEC
modifications: N-acetyl, C-amide, cystine-knot folded; ratVEGF26-104
[3]
  immunogenicity in rats compared to oxid-humVEGF26-104: equally immunogenic and potent as compared to oxid-humVEGF26-104

B3: oxid-humTGFB215-111/Δ49-77-humVEGF62-67: chimeric truncated human TGFB2 residues 15-111 with beta2-loop replaced by humVEGF 62-67 (SEQ ID NO:35) (peptide)
chain: CALRPLYIDFKRDLGWKWIHEPKGYNANFCAGACNDEGLECVSQDLEPLTILYYIGKTPKIEQLSNMIVKSCKC
modifications: oxidized; humTGFB2-humVEGF
full-length TGF-B2; pre-immune sera of the two rats
  titer in ELISA to full-length TGF-B2, pre-immune sera: ≤ 2.1
full-length TGF-B2; rat antisera
  cross-reactivity of elicited antibodies with native humTGF-B2: fully cross-reactive with the native protein humTGF-B2
full-length TGF-B2; two rats, inoculations at 0, 2, 4, 7.5 wks, titer = -10log[conc] at which OD = 4x background
  titer in ELISA to full-length TGF-B2, nine weeks post vaccination antisera: 3.8 and 4.1
[4]
  specificity of antibodies in the sera (TGFB2-part versus VEGF-part): majority of antibodies in the sera were directed towards the TGFB2-part of the peptide
